Numbered stars: 1 amine (or outer) side, 2 acyl side, 3 side chain; on linkers, the order of the positions; unused ones are H or OH. Bridge positions count the residues as written; N and C are the ends. Side chains are listed from the residue outwards. Ends that are not written are not given here. * marks the point of attachment. C20 diacid = O=C(O)CCCCCCCCCCCCCCCCCCC(=O)*; γGlu = O=C(O)[C@H](CCC(=O)[*:2])N[*:1]

Assay [1] addresses T1, human calcitonin receptor (human, UniProt P30988 25-474).
T1 construct: whole, on cells; Membranes of BHK cells stably transfected with the human calcitonin receptor (Assay VII); also called hCTR; hCT
T1 sequence (looked up): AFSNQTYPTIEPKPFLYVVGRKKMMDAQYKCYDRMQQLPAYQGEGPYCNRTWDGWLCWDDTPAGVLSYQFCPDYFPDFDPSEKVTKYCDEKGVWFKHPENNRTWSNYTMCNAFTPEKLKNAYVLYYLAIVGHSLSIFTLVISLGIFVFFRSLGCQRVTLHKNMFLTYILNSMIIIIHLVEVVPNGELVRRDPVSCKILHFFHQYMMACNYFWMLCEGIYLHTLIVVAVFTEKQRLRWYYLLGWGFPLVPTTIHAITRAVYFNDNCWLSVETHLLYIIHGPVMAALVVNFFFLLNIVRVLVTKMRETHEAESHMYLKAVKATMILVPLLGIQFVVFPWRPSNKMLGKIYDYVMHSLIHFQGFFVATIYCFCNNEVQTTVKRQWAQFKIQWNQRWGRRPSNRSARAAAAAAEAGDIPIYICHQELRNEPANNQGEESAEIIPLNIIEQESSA
The assay can be described thus: ratio of IC50 at hCTR over IC50 at hAmylin-R (SPA competition assays). As to the method:
The resulting pellet was resuspended, homogenized and centrifuged (20.000 rpm, 15 min) in a buffer containing 20 mM Na-HEPES and 0.1 mM EDTA (pH 7.4, buffer 2). The resulting pellet was resuspended in buffer 2 and protein concentration was measured (BCA protein Assay, Pierce). The homogenate was kept cold during the whole procedure. The membranes were kept at −80° C. until use. The assay was performed in a 384 well Optiplate (PerkinElmer) in a total volume of 40 ul. Membranes were mixed with SPA beads. Final concentration of membranes 35 ng/μL final and SPA beads was 0.05 mg/well. Test-compounds were dissolved in DMSO and further diluted in assay buffer (50 mM Hepes, pH 7.4, 1 mM CaCl2, 5 mM MgCl₂, 0.1% OA and 0.02% Tween20). […] The final mixture was incubated with shaking at 400 rpm for 120 min at 25° C. prior to centrifugation (1500 rpm, 10 min). Samples were analyzed on TopCounter™ (Packard). The IC₅₀ was calculated using (one site binding competition analysis) GraphPad Prism5 as a measure of receptor affinity.
Membranes were prepared in the following way; the cells were rinsed with PBS and incubated with Versene for approximately 5 min before harvesting. The cells were flushed with PBS and the cell-suspension was centrifuged for 5 min at 1000 rpm. Cells were homogenized (Ultrathurrax) in a buffer containing 20 mM Na-HEPES and 10 mM EDTA (pH 7.4) and centrifuged at 20.000 rpm for 15 min. The resulting pellet was resuspended, homogenized and centrifuged (20.000 rpm, 15 min) in a buffer containing 20 mM Na-HEPES and 0.1 mM EDTA (pH 7.4, buffer 2). The resulting pellet was resuspended in buffer 2 and protein concentration was measured (BCA protein Assay, Pierce). The homogenate was kept cold during the whole procedure. The membranes were kept at −80° C. until use. Assay was performed in a 384 well Optiplate (PerkinElmer) in a total volume of 40 ul. Membranes were mixed with SPA beads.

For assay [2], the target named is T1, human calcitonin receptor. The assay can be described thus: SPA competition against 125I-calcitonin, membranes of BHK cells with human calcitonin receptor (Assay VII). As to the method: Membranes were prepared in the following way; the cells were rinsed with PBS and incubated with Versene for approximately 5 min before harvesting. The cells were flushed with PBS and the cell-suspension was centrifuged for 5 min at 1000 rpm. Cells were homogenized (Ultrathurrax) in a buffer containing 20 mM Na-HEPES and 10 mM EDTA (pH 7.4) and centrifuged at 20.000 rpm for 15 min. The resulting pellet was resuspended, homogenized and centrifuged (20.000 rpm, 15 min) in a buffer containing 20 mM Na-HEPES and 0.1 mM EDTA (pH 7.4, buffer 2). The resulting pellet was resuspended in buffer 2 and protein concentration was measured (BCA protein Assay, Pierce). The homogenate was kept cold during the whole procedure. The membranes were kept at −80° C. until use. Assay was performed in a 384 well Optiplate (PerkinElmer) in a total volume of 40 ul. Membranes were mixed with SPA beads. Final concentration of membranes 35 ng/μL final and Final concentration of SPA beads was 0.05 mg/well. Test-compounds were dissolved in DMSO and further diluted in assay buffer (50 mM Hepes, pH 7.4, 1 mM CaCl2, 5 mM MgCl₂, 0.1% OA and 0.02% Tween20). […] The final mixture was incubated for 120 min with shaking at 400 rpm at 25° C. prior to centrifugation (1500 rpm, 10 min). Samples were analyzed on TopCounter™ (Packard). The […] was calculated using (one site binding competition analysis) GraphPad Prism5 as a measure of receptor affinity.

B1: N^ε1-[(4S)-4-carboxy-4-(19-carboxynonadecanoylamino)butanoyl]-[Asp14,Arg17,Pro21,Pro27,Pro34,Arg35]-h-amylin (peptide)
peptide: K([γGlu-C20 diacid])CNTATCATQRLADFLRHSSPNFGAIPSSTNVGPRTY-NH2
modifications: disulfide 2-7; N-terminus assumed
SMILES: CC[C@H](C)[C@H](NC(=O)[C@H](C)NC(=O)CNC(=O)[C@H](Cc1ccccc1)NC(=O)[C@H](CC(N)=O)NC(=O)[C@@H]1CCCN1C(=O)[C@H](CO)NC(=O)[C@H](CO)NC(=O)[C@H](Cc1c[nH]cn1)NC(=O)[C@H](CCCNC(=N)N)NC(=O)[C@H](CC(C)C)NC(=O)[C@H](Cc1ccccc1)NC(=O)[C@H](CC(=O)O)NC(=O)[C@H](C)NC(=O)[C@H](CC(C)C)NC(=O)[C@H](CCCNC(=N)N)NC(=O)[C@H](CCC(N)=O)NC(=O)[C@@H](NC(=O)[C@H](C)NC(=O)[C@@H]1CSSC[C@H](NC(=O)[C@@H](N)CCCCNC(=O)CC[C@H](NC(=O)CCCCCCCCCCCCCCCCCCC(=O)O)C(=O)O)C(=O)N[C@@H](CC(N)=O)C(=O)N[C@@H]([C@@H](C)O)C(=O)N[C@@H](C)C(=O)N[C@@H]([C@@H](C)O)C(=O)N1)[C@@H](C)O)C(=O)N1CCC[C@H]1C(=O)N[C@@H](CO)C(=O)N[C@@H](CO)C(=O)N[C@H](C(=O)N[C@@H](CC(N)=O)C(=O)N[C@H](C(=O)NCC(=O)N1CCC[C@H]1C(=O)N[C@@H](CCCNC(=N)N)C(=O)N[C@H](C(=O)N[C@@H](Cc1ccc(O)cc1)C(N)=O)[C@@H](C)O)C(C)C)[C@@H](C)O
On to B1, for which, in assay [1], the “Ratio hCT/hAmylin binding” value is 151. In assay [2], the IC50 was determined as 42.5 nM.

B2: N^ε1-[(4S)-4-carboxy-4-(19-carboxynonadecanoylamino)butanoyl]-[Glu14,Arg17,Pro21,Pro27,Arg34,Glu35]-h-amylin (peptide)
peptide: K([γGlu-C20 diacid])CNTATCATQRLAEFLRHSSPNFGAIPSSTNVGRETY-NH2
modifications: disulfide 2-7; N-terminus assumed
SMILES: CC[C@H](C)[C@H](NC(=O)[C@H](C)NC(=O)CNC(=O)[C@H](Cc1ccccc1)NC(=O)[C@H](CC(N)=O)NC(=O)[C@@H]1CCCN1C(=O)[C@H](CO)NC(=O)[C@H](CO)NC(=O)[C@H](Cc1c[nH]cn1)NC(=O)[C@H](CCCNC(=N)N)NC(=O)[C@H](CC(C)C)NC(=O)[C@H](Cc1ccccc1)NC(=O)[C@H](CCC(=O)O)NC(=O)[C@H](C)NC(=O)[C@H](CC(C)C)NC(=O)[C@H](CCCNC(=N)N)NC(=O)[C@H](CCC(N)=O)NC(=O)[C@@H](NC(=O)[C@H](C)NC(=O)[C@@H]1CSSC[C@H](NC(=O)[C@@H](N)CCCCNC(=O)CC[C@H](NC(=O)CCCCCCCCCCCCCCCCCCC(=O)O)C(=O)O)C(=O)N[C@@H](CC(N)=O)C(=O)N[C@@H]([C@@H](C)O)C(=O)N[C@@H](C)C(=O)N[C@@H]([C@@H](C)O)C(=O)N1)[C@@H](C)O)C(=O)N1CCC[C@H]1C(=O)N[C@@H](CO)C(=O)N[C@@H](CO)C(=O)N[C@H](C(=O)N[C@@H](CC(N)=O)C(=O)N[C@H](C(=O)NCC(=O)N[C@@H](CCCNC(=N)N)C(=O)N[C@@H](CCC(=O)O)C(=O)N[C@H](C(=O)N[C@@H](Cc1ccc(O)cc1)C(N)=O)[C@@H](C)O)C(C)C)[C@@H](C)O
With B2, in assay [1], the “Ratio hCT/hAmylin binding” value is 28.5. Besides, the IC50 in assay [2] is 6.62 nM.

B3: N^ε1-[(4S)-4-carboxy-4-(19-carboxynonadecanoylamino)butanoyl]-[Glu14,Arg17,Pro21,Pro27,His34,Glu35]-h-amylin (peptide)
peptide: K([γGlu-C20 diacid])CNTATCATQRLAEFLRHSSPNFGAIPSSTNVGHETY-NH2
modifications: disulfide 2-7; N-terminus assumed
SMILES: CC[C@H](C)[C@H](NC(=O)[C@H](C)NC(=O)CNC(=O)[C@H](Cc1ccccc1)NC(=O)[C@H](CC(N)=O)NC(=O)[C@@H]1CCCN1C(=O)[C@H](CO)NC(=O)[C@H](CO)NC(=O)[C@H](Cc1c[nH]cn1)NC(=O)[C@H](CCCNC(=N)N)NC(=O)[C@H](CC(C)C)NC(=O)[C@H](Cc1ccccc1)NC(=O)[C@H](CCC(=O)O)NC(=O)[C@H](C)NC(=O)[C@H](CC(C)C)NC(=O)[C@H](CCCNC(=N)N)NC(=O)[C@H](CCC(N)=O)NC(=O)[C@@H](NC(=O)[C@H](C)NC(=O)[C@@H]1CSSC[C@H](NC(=O)[C@@H](N)CCCCNC(=O)CC[C@H](NC(=O)CCCCCCCCCCCCCCCCCCC(=O)O)C(=O)O)C(=O)N[C@@H](CC(N)=O)C(=O)N[C@@H]([C@@H](C)O)C(=O)N[C@@H](C)C(=O)N[C@@H]([C@@H](C)O)C(=O)N1)[C@@H](C)O)C(=O)N1CCC[C@H]1C(=O)N[C@@H](CO)C(=O)N[C@@H](CO)C(=O)N[C@H](C(=O)N[C@@H](CC(N)=O)C(=O)N[C@H](C(=O)NCC(=O)N[C@@H](Cc1c[nH]cn1)C(=O)N[C@@H](CCC(=O)O)C(=O)N[C@H](C(=O)N[C@@H](Cc1ccc(O)cc1)C(N)=O)[C@@H](C)O)C(C)C)[C@@H](C)O
notes: also called compound 107
For the molecule B3, the “Ratio hCT/hAmylin binding” value in assay [1] was 11.1. The IC50 in assay [2] is 4.28 nM.

B4: N^ε1-[(4S)-4-carboxy-4-(19-carboxynonadecanoylamino)butanoyl]-[Asp14,Arg17,Pro21,Pro27,Pro34,Glu35]-h-amylin (peptide)
peptide: K([γGlu-C20 diacid])CNTATCATQRLADFLRHSSPNFGAIPSSTNVGPETY-NH2
modifications: disulfide 2-7; N-terminus assumed
SMILES: CC[C@H](C)[C@H](NC(=O)[C@H](C)NC(=O)CNC(=O)[C@H](Cc1ccccc1)NC(=O)[C@H](CC(N)=O)NC(=O)[C@@H]1CCCN1C(=O)[C@H](CO)NC(=O)[C@H](CO)NC(=O)[C@H](Cc1c[nH]cn1)NC(=O)[C@H](CCCNC(=N)N)NC(=O)[C@H](CC(C)C)NC(=O)[C@H](Cc1ccccc1)NC(=O)[C@H](CC(=O)O)NC(=O)[C@H](C)NC(=O)[C@H](CC(C)C)NC(=O)[C@H](CCCNC(=N)N)NC(=O)[C@H](CCC(N)=O)NC(=O)[C@@H](NC(=O)[C@H](C)NC(=O)[C@@H]1CSSC[C@H](NC(=O)[C@@H](N)CCCCNC(=O)CC[C@H](NC(=O)CCCCCCCCCCCCCCCCCCC(=O)O)C(=O)O)C(=O)N[C@@H](CC(N)=O)C(=O)N[C@@H]([C@@H](C)O)C(=O)N[C@@H](C)C(=O)N[C@@H]([C@@H](C)O)C(=O)N1)[C@@H](C)O)C(=O)N1CCC[C@H]1C(=O)N[C@@H](CO)C(=O)N[C@@H](CO)C(=O)N[C@H](C(=O)N[C@@H](CC(N)=O)C(=O)N[C@H](C(=O)NCC(=O)N1CCC[C@H]1C(=O)N[C@@H](CCC(=O)O)C(=O)N[C@H](C(=O)N[C@@H](Cc1ccc(O)cc1)C(N)=O)[C@@H](C)O)C(C)C)[C@@H](C)O
Turning to B4, the “Ratio hCT/hAmylin binding” value in assay [1] turned out to be 16.7. Moreover, the IC50 in assay [2] was 3.27 nM.

What is called IC50 is the midpoint of a concentration-inhibition curve.

(Values after US20140087995A1 (published 2014).)
